B1: GST-SURF4^49-60 [human] / CW peptides (KRRHPKKC) [not stated (human or mouse cDNA cloned)] (parent complex)
chain 1: SEQRDYIDTTWN
chain 2: KRRHPKKC

Variants of: B1
Assay: peptide pull-down (peptides on thiopyridone Sepharose 6B), anti-GST immunoblot quantification; n = 3, mean ± SD; parent: 1; read off a plot

ratio to parent | Variant
~0.03 | chain 2 AAAHPAAC [chain 2 K1A, chain 2 R2A, chain 2 R3A, chain 2 K6A, chain 2 K7A]
